Measurements as given in US20140348747A1.
Values joined by “and” are separate entries in the source; they are usually repeats but may differ in a detail not shown here. Equal entries are not always repeated. Where two headings read alike, the source gives them in different places.

Legend:
Conditions in all cases: modification not given
VT = molecular target: VT
P157H = molecular target: T1, P157H
T1 chain: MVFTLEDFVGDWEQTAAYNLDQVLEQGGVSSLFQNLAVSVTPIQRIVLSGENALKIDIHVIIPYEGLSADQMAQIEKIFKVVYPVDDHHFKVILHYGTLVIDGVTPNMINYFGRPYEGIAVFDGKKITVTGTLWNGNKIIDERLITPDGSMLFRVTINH

5P+V = molecular target: 5P+V
H93P = molecular target: T2, H93P
T2 chain: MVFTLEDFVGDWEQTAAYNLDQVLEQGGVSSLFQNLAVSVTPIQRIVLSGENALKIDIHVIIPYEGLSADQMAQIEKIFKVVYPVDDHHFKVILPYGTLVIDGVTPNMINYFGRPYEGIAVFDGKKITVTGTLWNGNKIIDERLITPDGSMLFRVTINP

L46R = molecular target: T3, L46R
T3 chain: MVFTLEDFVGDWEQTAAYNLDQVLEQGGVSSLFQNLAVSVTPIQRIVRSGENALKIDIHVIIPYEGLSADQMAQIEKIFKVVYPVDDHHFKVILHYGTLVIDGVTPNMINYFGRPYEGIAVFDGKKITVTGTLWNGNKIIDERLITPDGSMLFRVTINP

[1] = molecular target: T4, wild-type non-luminescent polypeptide (WT fragment of residues 1-156 of NanoLuc)
T4 chain: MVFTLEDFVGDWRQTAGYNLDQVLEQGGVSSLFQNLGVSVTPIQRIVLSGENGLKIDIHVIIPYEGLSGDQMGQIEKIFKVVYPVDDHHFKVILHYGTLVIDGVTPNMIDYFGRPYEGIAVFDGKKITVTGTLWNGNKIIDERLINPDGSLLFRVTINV

[2] = molecular target: T4, wild-type non-luminescent polypeptide …
[3] = molecular target: T4, wild-type non-luminescent polypeptide …
F31L = molecular target: T5, F31L
T5 chain: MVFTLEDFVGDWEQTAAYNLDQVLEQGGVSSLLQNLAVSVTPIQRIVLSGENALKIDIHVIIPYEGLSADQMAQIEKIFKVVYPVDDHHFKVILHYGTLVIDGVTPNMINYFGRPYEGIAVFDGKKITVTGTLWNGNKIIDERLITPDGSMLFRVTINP

VA = molecular target: VA
AA = molecular target: AA
D2 = molecular target: T6, D2
T6 chain: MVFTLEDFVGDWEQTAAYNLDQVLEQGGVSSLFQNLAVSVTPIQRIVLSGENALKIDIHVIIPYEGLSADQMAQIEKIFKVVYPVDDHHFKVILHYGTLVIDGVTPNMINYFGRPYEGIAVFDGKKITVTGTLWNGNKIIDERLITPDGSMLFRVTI

5P+VT = molecular target: 5P+VT
F31L+H93P = molecular target: T7, F31L+H93P
T7 chain: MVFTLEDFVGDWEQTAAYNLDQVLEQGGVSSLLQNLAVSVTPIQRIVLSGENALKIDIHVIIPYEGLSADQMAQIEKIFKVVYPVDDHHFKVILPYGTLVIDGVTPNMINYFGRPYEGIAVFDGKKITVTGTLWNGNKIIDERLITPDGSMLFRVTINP

NLpoly 11S (12-A51T) = molecular target: T8, NLpoly 11S (12-A51T)
T8 chain: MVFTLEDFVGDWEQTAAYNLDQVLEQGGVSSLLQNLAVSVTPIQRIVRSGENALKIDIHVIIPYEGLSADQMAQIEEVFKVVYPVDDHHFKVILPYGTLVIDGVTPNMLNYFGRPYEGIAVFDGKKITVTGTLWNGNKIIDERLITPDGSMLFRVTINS

A51T = molecular target: T9, A51T
T9 chain: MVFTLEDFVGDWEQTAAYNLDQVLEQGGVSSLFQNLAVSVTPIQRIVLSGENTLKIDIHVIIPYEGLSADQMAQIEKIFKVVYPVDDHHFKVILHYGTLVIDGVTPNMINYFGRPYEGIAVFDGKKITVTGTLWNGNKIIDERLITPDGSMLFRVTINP

VTGWR = molecular target: T10, VTGWR
T10 chain: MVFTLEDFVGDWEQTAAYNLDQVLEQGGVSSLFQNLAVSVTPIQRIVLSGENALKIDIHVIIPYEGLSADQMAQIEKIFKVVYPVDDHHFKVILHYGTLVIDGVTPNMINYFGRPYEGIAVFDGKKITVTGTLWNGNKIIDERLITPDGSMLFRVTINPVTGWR

V58A = molecular target: T11, V58A
T11 chain: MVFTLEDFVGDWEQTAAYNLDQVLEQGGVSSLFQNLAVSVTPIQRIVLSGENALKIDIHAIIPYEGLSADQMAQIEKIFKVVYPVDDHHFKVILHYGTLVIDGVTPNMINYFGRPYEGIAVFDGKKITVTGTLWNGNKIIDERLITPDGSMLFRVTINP

P157S = molecular target: T12, P157S
T12 chain: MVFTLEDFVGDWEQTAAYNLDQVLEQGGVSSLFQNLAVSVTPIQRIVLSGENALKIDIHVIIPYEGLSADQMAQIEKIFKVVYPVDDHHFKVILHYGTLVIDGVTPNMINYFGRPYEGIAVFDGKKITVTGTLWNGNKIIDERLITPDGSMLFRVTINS

5P+VTG = molecular target: 5P+VTG
VTGW = molecular target: T13, VTGW
T13 chain: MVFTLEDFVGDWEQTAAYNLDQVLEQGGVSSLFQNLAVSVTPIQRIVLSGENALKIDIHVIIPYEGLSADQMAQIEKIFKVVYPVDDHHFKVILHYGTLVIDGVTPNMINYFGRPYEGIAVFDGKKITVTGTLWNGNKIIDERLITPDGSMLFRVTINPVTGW

H57R = molecular target: T14, H57R
T14 chain: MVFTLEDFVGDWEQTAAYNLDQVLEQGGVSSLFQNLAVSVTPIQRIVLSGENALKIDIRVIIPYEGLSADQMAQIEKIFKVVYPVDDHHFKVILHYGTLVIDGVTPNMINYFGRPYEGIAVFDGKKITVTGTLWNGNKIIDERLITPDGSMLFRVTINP

Question: What does the source list for NVSGWRLFKKISN [NLpep78]?
Answer: Kd (VT): 0.0131 µM; Kd (P157H): 0.0179 µM; Kd (5P+V): 0.0249 µM; Kd (H93P): 0.024 µM; Kd (L46R): 0.0184 µM; Kd [1]: 1750 µM; Kd [2]: 0.341 µM and 1.05 µM; Kd [3]: 0.784 µM; Kd (F31L): 0.0148 µM; Kd (VA): 0.0146 µM; Kd (AA): 0.0113 µM; Kd (D2): 0.0102 µM; Kd (5P+VT): 0.0254 µM; Kd (F31L+H93P): 0.0172 µM; Kd (NLpoly 11S (12-A51T)): 26 µM; Kd (A51T): 0.0188 µM; Kd (VTGWR): 0.0133 µM; Kd (V58A): 0.0152 µM; Kd (P157S): 0.0152 µM; Kd (5P+VTG): 0.026 µM; Kd (VTGW): 0.013 µM; Kd (H57R): 0.0141 µM
